Measured values as given in PMC10321058.

Target: SARS-CoV-2 spike RBD protein (SARS-CoV-2, UniProt P0DTC2 319-541)
Assay: electrochemical aptasensor

B1: thiolated SARS-CoV-2 RBD aptamer (Song et al. 2020) (ssDNA)
DNA: TTTTTCCAGCCACCGACCTTGTGCTTTGGGAGTGCTGGTCCAAGGGCGTTAAGGACA
modifications: 5'-thiol, TCEP reduced, immobilized on SPCE/HA-LSCF
B1: binds.
